Laboratory results taken from patent publication US20150175992A1.

What was measured:
Test in all cases: cell-based or functional assay
[1] = target: Bacillus subtilis XynA variant G13Y/K99Y/T104W/T110A/Y113D/I118V/R122F/K154R/N159D/Q175L (Bacillus subtilis) (UniProt P18429)
[2] = target: Bacillus subtilis XynA variant G13Y/I77M/K99Y/T104W/T110A/Y113D/R122F/K154R/N159D/Q175L (Bacillus subtilis) (UniProt P18429)
[3] = target: Bacillus subtilis XynA variant G13Y/G34K/T110A/Y113D/R122D/Q175L (Bacillus subtilis) (UniProt P18429)
[4] = target: Bacillus subtilis XynA variant G13Y/K99Y/T104W/T110A/Y113D/N114F/R122F/K154R/N159D/Q175L (Bacillus subtilis) (UniProt P18429)
[5] = target: Bacillus subtilis XynA variant G13Y/I77S/K99Y/T104W/T110A/Y113D/R122F/K154R/N159D/Q175L (Bacillus subtilis) (UniProt P18429)
[6] = target: Bacillus subtilis XynA variant G13Y/K99Y/T104W/T110A/Y113D/R122F/K154R/N159D/Q175/V81I (Bacillus subtilis) (UniProt P18429)
[7] = target: Bacillus subtilis XynA variant G13Y/K99Y/T104W/T110A/Y113D/R122F/K154R/N159D/Y166F/Q175L (Bacillus subtilis) (UniProt P18429)
[8] = target: Bacillus subtilis XynA variant G13Y/K99Y/T104W/T110A/Y113D/N114Y/R122F/K154R/N159D/Q175K (Bacillus subtilis) (UniProt P18429)
[9] = target: Bacillus subtilis XynA variant G13Y/I77V/K99Y/T104W/T110A/Y113D/R122F/K154R/N159D/Q175L (Bacillus subtilis) (UniProt P18429)
[10] = target: Bacillus subtilis XynA variant G13Y/K99Y/T104W/T110A/Y113D/N114D/R122F/K154R/N159D/Q175K (Bacillus subtilis) (UniProt P18429)
[11] = target: Bacillus subtilis xylanase variant BS3 (wildtype with D11F/R122D mutations) (Bacillus subtilis) (UniProt P18429)
[12] = target: Bacillus subtilis XynA variant G13Y/K99Y/T104W/T110A/Y113D/R122F/K154R/N159D/Q175K (Bacillus subtilis) (UniProt P18429)
[13] = target: Bacillus subtilis XynA variant G13Y/K99Y/T104W/T110A/Y113D/N114D/R122F/K154R/N159D/Q175L (Bacillus subtilis) (UniProt P18429)
[14] = target: Bacillus subtilis XynA variant G13Y/T110A/Y113D/R122D/W164F/Q175L (Bacillus subtilis) (UniProt P18429)
[15] = target: Bacillus subtilis XynA variant G13Y/T110A/Y113D/R122D/S162E/Q175L (Bacillus subtilis) (UniProt P18429)
[16] = target: Bacillus subtilis XynA wildtype xylanase (SEQ ID No. 1) (Bacillus subtilis) (UniProt P18429)
[17] = target: Bacillus subtilis XynA variant G13Y/T110A/Y113D/R122F/Q175L (Bacillus subtilis) (UniProt P18429)
[18] = target: Bacillus subtilis XynA variant G13Y/T110A/Y113D/R122D/Q175L (Bacillus subtilis) (UniProt P18429)
[19] = target: Bacillus subtilis XynA variant G13Y/I77L/K99Y/T104W/T110A/Y113D/R122F/K154R/N159D/Q175L (Bacillus subtilis) (UniProt P18429)
[20] = target: Bacillus subtilis XynA variant G13Y/K99Y/T104W/T110A/Y113D/R122F/K154R/N159D/Q175L (Bacillus subtilis) (UniProt P18429)
[21] = target: Bacillus subtilis XynA variant D11F/R122D/T110A/Y113A (Bacillus subtilis) (UniProt P18429)
[22] = target: Bacillus subtilis XynA variant G13Y/K99Y/T104W/T110A/Y113D/N114Y/R122F/K154R/N159D/Q175L (Bacillus subtilis) (UniProt P18429)
[23] = target: Bacillus subtilis XynA variant G13Y/T110A/Y113D/R122D/S162D/Q175L (Bacillus subtilis) (UniProt P18429)
[24] = target: Bacillus subtilis XynA variant D11F/R122D/T110A (Bacillus subtilis) (UniProt P18429)
[25] = target: Bacillus subtilis XynA variant G13Y/I77Y/K99Y/T104W/T110A/Y113D/R122F/K154R/N159D/Q175L (Bacillus subtilis) (UniProt P18429)
[26] = target: Bacillus subtilis XynA variant G13Y/T110A/Y113D/R122D/K154R/N159D/Q175L (Bacillus subtilis) (UniProt P18429)

crude inhibitor preparation (containing both TAXI and XIP) from wheat (Triticum aestivum) flour
% Activity @ 50 XIU/ml (residual xylanase activity) [1]: 79%
% Activity @ 50 XIU/ml (residual xylanase activity) [2]: 46%
% Activity @ 50 XIU/ml (residual xylanase activity) [3]: 97%
% Activity @ 50 XIU/ml (residual xylanase activity) [4]: 79%
% Activity @ 50 XIU/ml (residual xylanase activity) [5]: 20%
% Activity @ 50 XIU/ml (residual xylanase activity) [6]: 46%
% Activity @ 50 XIU/ml (residual xylanase activity) [7]: 68%
% Activity @ 50 XIU/ml (residual xylanase activity) [8]: 84%
% Activity @ 50 XIU/ml (residual xylanase activity) [9]: 45%
% Activity @ 50 XIU/ml (residual xylanase activity) [10]: 79%
% Activity @ 5.6 XIU/ml (residual xylanase activity) [11]: 100%
% Activity @ 33.5 XIU/ml (residual xylanase activity) [11]: 100%
% Activity @ 50 XIU/ml (residual xylanase activity) [11]: 95%
% Activity @ 50 XIU/ml (residual xylanase activity) [12]: 72%
% Activity @ 50 XIU/ml (residual xylanase activity) [13]: 79%
% Activity @ 50 XIU/ml (residual xylanase activity) [14]: 29%
% Activity @ 50 XIU/ml (residual xylanase activity) [15]: 44%
% Activity @ 5.6 XIU/ml (residual xylanase activity) [16]: 29%
% Activity @ 50 XIU/ml (residual xylanase activity) [17]: 65%
% Activity @ 33.5 XIU/ml (residual xylanase activity) [18]: 50%
% Activity @ 50 XIU/ml (residual xylanase activity) [19]: 75%
% Activity @ 50 XIU/ml (residual xylanase activity) [20]: 64%
% Activity @ 5.6 XIU/ml (residual xylanase activity) [21]: 99%
% Activity @ 50 XIU/ml (residual xylanase activity) [22]: 78%
% Activity @ 50 XIU/ml (residual xylanase activity) [23]: 40%
% Activity @ 5.6 XIU/ml (residual xylanase activity) [24]: 98%
% Activity @ 33.5 XIU/ml (residual xylanase activity) [24]: 100%
% Activity @ 50 XIU/ml (residual xylanase activity) [25]: 37%
% Activity @ 50 XIU/ml (residual xylanase activity) [26]: 32%
